According to patent US6376240:

Molecular target: recombinant His6-RFLAT-1 (C-terminal portion of RFLAT-1, amino acids 59-288)
Sequence (chain, as listed by the source): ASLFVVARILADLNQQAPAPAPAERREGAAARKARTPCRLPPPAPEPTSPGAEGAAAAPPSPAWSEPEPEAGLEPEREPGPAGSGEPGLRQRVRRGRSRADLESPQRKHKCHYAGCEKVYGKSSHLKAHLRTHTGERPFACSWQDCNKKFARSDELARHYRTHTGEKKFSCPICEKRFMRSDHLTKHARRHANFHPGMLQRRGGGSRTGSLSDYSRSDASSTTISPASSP

B1: ERK1 kinase (protein)
chain: MAAAAAQGGGGGEPRRTEGVGPGVPGEVEMVKGQPFDVGPRYTQLQYIGEGAYGMVSSAYDHVRKTRVAIKKISPFEHQTYCQRTLREIQILLRFRHENVIGIRDILRASTLEAMRDVYIVQDLMETDLYKLLKSQQLSNDHICYFLYQILRGLKYIHSANVLHRDLKPSNLLINTTCDLKICDFGLARIADPEHDHTGFLTEYVATRWYRAPEIMLNSKGYTKSIDIWSVGCILAEMLSNRPIFPGKHYLDQLNHILGILGSPSQEDLNCIINMKARNYLQSLPSKTKVAWAKLFPKSDSKALDLLDRMLTFNPNKRITVEEALAHPYLEQYYDPTDEPVAEEPFTFAMELDDLPKERLKELIFQETARFQPGVLEAP
- phosphorylation of recombinant RFLAT-1 by kinase (control): As controls, ERK1 kinase does not
